From paper PMC9166766 (2022)
No end group written: not given here. *: point of attachment. Biotin = O=C1N[C@H]2[C@H](CS[C@H]2CCCCC(=O)*)N1

Molecular target: His6-tagged CNA (isoform not told) (UniProt P16298 1-524)
Assay: SPR

Kd: 512 nM
B1: biotin-labeled CABIN1-L-1 peptide (peptide)
peptide: Biotin-AAAMAGFPPEITVTPPTP
